The source of these data is US20220251151A1.

Common to all, as to assay: cell-based or functional assay
In assay [1] the target is human Kv1.1 potassium channel (α-subunit) (human) (UniProt Q09470).
In assay [2] the target is human Kv1.2 potassium channel (α-subunit) (human) (UniProt P16389).
Assay [3] addresses human Kv1.3 potassium channel (potassium voltage-gated channel subfamily A member 3, α-subunit) (human) (UniProt P22001).
Assay [4] concerns the target human Kv1.6 potassium channel (α-subunit) (human) (UniProt P17658).

human Kv1.6 potassium channel (α-subunit) (human), sequence (P17658 whole entry): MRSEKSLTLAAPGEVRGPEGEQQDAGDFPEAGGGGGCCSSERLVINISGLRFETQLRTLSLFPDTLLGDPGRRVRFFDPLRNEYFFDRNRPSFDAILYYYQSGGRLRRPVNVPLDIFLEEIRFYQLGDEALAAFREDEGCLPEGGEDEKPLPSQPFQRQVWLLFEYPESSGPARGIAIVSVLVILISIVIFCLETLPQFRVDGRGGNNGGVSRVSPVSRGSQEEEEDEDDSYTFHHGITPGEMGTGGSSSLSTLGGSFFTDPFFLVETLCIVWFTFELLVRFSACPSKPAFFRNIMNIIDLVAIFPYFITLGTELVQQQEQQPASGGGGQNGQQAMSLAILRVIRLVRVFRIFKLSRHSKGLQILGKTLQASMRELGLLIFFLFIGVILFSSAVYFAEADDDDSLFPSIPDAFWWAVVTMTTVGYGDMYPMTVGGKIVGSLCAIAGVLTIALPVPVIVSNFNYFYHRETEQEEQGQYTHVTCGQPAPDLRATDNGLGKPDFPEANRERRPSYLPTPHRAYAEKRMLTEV
human Kv1.2 potassium channel (α-subunit) (human), sequence (P16389 whole entry): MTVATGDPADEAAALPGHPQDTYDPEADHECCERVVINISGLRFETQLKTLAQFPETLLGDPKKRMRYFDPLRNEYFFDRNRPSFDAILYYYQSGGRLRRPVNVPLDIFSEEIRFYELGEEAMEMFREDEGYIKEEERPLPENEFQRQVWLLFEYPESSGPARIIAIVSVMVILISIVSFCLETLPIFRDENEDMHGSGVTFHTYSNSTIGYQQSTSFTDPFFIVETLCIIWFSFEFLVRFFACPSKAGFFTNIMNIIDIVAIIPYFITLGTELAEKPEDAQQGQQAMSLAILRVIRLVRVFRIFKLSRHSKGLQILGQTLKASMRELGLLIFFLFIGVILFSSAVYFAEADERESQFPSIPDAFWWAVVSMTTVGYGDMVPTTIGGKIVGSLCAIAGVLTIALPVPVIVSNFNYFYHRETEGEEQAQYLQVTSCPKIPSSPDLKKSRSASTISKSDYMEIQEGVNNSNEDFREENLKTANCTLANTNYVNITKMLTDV
human Kv1.3 potassium channel (potassium voltage-gated channel subfamily A member 3, α-subunit) (human), sequence (P22001 whole entry): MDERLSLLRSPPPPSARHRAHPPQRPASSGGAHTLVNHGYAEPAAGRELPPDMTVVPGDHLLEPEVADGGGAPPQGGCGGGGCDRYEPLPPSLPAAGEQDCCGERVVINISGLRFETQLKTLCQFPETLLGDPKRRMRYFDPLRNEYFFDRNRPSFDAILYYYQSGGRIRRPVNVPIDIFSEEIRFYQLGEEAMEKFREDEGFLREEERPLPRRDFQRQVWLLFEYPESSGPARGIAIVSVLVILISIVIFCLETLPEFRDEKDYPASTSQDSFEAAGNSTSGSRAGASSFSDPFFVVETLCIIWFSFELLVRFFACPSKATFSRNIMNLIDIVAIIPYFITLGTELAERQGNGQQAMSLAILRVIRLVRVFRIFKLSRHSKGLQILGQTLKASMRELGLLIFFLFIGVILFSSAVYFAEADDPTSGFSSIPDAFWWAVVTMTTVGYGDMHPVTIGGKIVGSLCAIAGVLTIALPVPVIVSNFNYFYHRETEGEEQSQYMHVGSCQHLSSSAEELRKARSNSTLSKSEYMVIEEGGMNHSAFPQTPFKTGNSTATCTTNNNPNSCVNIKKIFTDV
human Kv1.1 potassium channel (α-subunit) (human), sequence (Q09470 whole entry): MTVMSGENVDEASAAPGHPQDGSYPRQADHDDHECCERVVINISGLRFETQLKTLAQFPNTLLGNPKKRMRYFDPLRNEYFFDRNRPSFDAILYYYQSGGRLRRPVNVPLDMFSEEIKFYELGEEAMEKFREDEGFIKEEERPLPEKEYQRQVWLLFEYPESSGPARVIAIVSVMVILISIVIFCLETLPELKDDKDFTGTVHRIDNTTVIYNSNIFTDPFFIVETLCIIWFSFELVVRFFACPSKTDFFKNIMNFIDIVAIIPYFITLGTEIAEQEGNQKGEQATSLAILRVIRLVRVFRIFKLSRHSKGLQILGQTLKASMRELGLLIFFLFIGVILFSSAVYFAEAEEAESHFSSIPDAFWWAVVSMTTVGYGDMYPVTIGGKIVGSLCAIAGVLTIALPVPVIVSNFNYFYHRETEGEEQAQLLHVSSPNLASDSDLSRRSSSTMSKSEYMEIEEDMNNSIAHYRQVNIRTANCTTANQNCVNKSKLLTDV

In assay [1], Moka1 (peptide) came in with a Potency IC50 (patch clamp) of more than 3000 nM and a Selectivity Kv1.1/Kv1.3 of more than 300. Moreover, in assay [2], the Potency IC50 (patch clamp) stood at 275 nM and the Selectivity Kv1.2/Kv1.3 was found to be 31. The substance further yielded a Potency IC50 (patch clamp) in assay [3] of 9 nM. Moreover, in assay [4], the Potency IC50 (patch clamp) is more than 3000 nM and the Selectivity Kv1.6/Kv1.3 is more than 300.

ShK (peptide): the results for the Potency IC50 (patch clamp) in assay [2], in assay [3] and in assay [4] were 11 nM, 0.017 nM and 0.19 nM, respectively.

Consider Vm24 (peptide), for which the Potency IC50 (patch clamp) is 0.097 nM in assay [1], 4.7 nM in assay [2], 0.15 nM in assay [3] and 21 nM in assay [4]. In addition, the Selectivity Kv1.1/Kv1.3 in assay [1] came out at 0.65. In assay [2], this substance had a Selectivity Kv1.2/Kv1.3 of 31. Moreover, the Selectivity Kv1.6/Kv1.3 in assay [4] stood at 139.
